For data set [1], the target named is Ca2+/calmodulin (endogenous, in Arabidopsis plants) (Arabidopsis thaliana). The data set is described as follows: cell-based or functional assay.
Data set [2] concerns the target T1, AtSR1 (CAMTA3) CG-1 DNA-binding domain (Arabidopsis thaliana, UniProt Q8GSA7 SEQ:1-153).
T1 sequence: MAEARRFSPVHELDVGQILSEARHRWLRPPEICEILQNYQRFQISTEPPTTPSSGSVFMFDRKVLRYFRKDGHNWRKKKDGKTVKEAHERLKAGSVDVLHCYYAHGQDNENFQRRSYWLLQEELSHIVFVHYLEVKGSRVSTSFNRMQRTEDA
The data set is described as follows: EMSA; Ca2+/CaM-independent. To be noted: tags: 6xHis (pET32a). The method, then: (§1) The E. coli strain BL21(DE3)/pLysS carrying the above pET32a derived plasmids for expression of recombinant proteins of the wild-type and mutated versions of AtSR1, AtSR6 or ABF1 were induced with 0.5 mM IPTG for 3 hours. 6×His tagged recombinant proteins were purified using Ni-NTA agarose affinity beads (Qiagen) as described by the manufacturer. Recombinant AtSR1 or AtSR6 covering CG-1 domain, or ABF1 was used for EMSA³² to detect its interaction with WT or mutated EDS1 promoter fragments. Recombinant AtSR1 containing CaMBD was used for CaM overlay assay³⁸.
(Mobility shift assays separate free from complexed probe on a gel.)

Data set [3] addresses T1, AtSR1 (CAMTA3) CG-1 DNA-binding domain. Briefly: EMSA; binding is ACGCGT-dependent. The settings on record: tags: 6xHis (pET32a). The method, then: as §1

Numbering of substitutions follows the chain as printed.

Take “full-length AtSR1 I909V fused to Flag tag, expressed from 35S::AtSR1I909V in atsr1-1 plants (from UniProt Q8GSA7 1-1032)”: in data set [1], the level of SA in complemented plants is 60 % of WT.
On the same count and under the same terms, next, “full-length wild-type AtSR1 fused to Flag tag, expressed from 35S::AtSR1 in atsr1-1 plants (from UniProt Q8GSA7 1-1032)”: 60 % of WT.

B1: EDS1P probe (-762 to -731) (dsDNA)
DNA 1: GTAAAAGTCGAATGTGACGCGTCTTGCCGAAC
DNA 2: GTTCGGCAAGACGCGTCACATTCGACTTTTAC
Turning to B1, in data set [2], the binding result is listed as “binds”.

B2: eds1p mutant probe (dsDNA)
DNA 1: B1 DNA 1 with G19C
DNA 2: B1 DNA 2 with C14G
modifications: [19 (G>C)]
Regarding B2, the binding result in data set [3] is reported as “no binding”.

Source of the values: patent publication US20100223690A1, “COMPOSITIONS AND METHODS FOR MODULATING PLANT DISEASE RESISTANCE AND IMMUNITY” (Washington State University, published 2010).
